# Data taken from paper PMC10150588 (Journal of chemical information and modeling, 2023).
# Several values for one entry are separate records, joined by “and”; a condition that tells them apart may be missing. Equal entries are not always repeated. Where two headings read alike, the source gives them in different places. No end group written: not given here.
# Key:
# [1] = target: BRG1 peptide (Homo sapiens) (UniProt P51532); settings: cited from earlier work
# [2] = target: NSD3 short peptide (Homo sapiens) (UniProt Q9BZ95); settings: cited from earlier work
# Chain of NSD3 short peptide (Homo sapiens) (Q9BZ95 whole entry): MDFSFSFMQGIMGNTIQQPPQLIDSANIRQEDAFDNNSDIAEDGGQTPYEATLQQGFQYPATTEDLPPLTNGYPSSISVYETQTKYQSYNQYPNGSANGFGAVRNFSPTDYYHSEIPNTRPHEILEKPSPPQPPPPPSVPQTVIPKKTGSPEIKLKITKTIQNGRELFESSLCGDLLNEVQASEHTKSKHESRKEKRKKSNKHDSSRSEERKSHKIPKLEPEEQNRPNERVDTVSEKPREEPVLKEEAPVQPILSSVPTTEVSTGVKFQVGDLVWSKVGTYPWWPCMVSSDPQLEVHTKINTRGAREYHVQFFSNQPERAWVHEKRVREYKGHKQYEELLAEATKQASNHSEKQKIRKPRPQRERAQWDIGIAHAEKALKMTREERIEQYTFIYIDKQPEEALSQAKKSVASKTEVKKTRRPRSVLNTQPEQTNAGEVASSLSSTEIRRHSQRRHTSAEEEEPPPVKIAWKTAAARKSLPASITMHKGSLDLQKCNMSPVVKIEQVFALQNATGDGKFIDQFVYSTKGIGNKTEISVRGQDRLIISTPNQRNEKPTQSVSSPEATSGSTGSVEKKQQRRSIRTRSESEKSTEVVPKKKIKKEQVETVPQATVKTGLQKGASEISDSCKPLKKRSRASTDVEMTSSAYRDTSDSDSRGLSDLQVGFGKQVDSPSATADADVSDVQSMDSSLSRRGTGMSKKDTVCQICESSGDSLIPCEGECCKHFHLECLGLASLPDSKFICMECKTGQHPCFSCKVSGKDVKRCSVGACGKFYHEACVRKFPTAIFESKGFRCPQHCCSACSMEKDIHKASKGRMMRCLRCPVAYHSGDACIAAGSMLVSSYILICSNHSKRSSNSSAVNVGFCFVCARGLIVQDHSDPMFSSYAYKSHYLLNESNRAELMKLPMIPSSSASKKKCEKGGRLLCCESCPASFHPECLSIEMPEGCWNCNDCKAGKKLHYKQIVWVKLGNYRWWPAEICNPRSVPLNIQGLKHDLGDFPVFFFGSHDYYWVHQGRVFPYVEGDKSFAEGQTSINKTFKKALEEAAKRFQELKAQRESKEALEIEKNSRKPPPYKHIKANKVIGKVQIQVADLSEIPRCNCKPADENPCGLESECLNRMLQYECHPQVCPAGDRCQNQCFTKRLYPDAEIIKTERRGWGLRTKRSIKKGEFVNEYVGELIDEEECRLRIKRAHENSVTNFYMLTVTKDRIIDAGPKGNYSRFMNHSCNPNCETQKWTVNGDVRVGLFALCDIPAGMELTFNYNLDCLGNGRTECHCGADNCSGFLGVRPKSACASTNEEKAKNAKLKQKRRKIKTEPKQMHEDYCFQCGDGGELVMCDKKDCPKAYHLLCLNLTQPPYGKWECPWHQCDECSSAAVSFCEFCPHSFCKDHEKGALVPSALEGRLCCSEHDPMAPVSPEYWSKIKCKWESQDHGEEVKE
# [3] = target: CHD4 peptide (Homo sapiens) (UniProt Q14839); settings: cited from earlier work
# [4] = target: LANA peptide (Human herpesvirus 8) (UniProt Q9QR71); settings: cited from earlier work
# Chain of LANA peptide (Human herpesvirus 8) (Q9QR71 1-23): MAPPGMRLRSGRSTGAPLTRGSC
# [5] = target: JMJD6 peptide (Homo sapiens) (UniProt Q6NYC1); settings: cited from earlier work
# [6] = target: T1, BRD3 ET (Homo sapiens, UniProt Q15059); settings: cited from earlier work
# T1 sequence (Q15059 554-640): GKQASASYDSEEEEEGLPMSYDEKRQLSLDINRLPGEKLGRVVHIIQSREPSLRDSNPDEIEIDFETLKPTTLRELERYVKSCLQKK
# [7] = target: T1, BRD3 ET; settings: cited from earlier work; remark: listed apart in the source
# [8] = target: BRD4 ET (Homo sapiens) (UniProt O60885); settings: cited from earlier work
# [9] = target: BRD3-ET; settings: cited from earlier work
# [10] = tested on: BRD4-ET; settings: cited from earlier work
# [11] = target: BRD4 ET (Homo sapiens) (UniProt O60885); settings: cited from earlier work; remark: listed apart in the source
# [12] = target: T1, BRD3 ET; assay: Isothermal titration calorimetry, peptide binding to BRD3 ET; design: species or system murine; settings: ITC, 20 mM Tris, 150 mM NaCl, 1 mM TCEP
# Chain of BRD3 ET (from UniProt Q15059) (Q15059 562-644): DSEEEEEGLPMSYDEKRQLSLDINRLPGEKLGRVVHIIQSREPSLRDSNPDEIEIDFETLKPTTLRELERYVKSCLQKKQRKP
# Chain of BRG1 peptide (Homo sapiens) (P51532 whole entry): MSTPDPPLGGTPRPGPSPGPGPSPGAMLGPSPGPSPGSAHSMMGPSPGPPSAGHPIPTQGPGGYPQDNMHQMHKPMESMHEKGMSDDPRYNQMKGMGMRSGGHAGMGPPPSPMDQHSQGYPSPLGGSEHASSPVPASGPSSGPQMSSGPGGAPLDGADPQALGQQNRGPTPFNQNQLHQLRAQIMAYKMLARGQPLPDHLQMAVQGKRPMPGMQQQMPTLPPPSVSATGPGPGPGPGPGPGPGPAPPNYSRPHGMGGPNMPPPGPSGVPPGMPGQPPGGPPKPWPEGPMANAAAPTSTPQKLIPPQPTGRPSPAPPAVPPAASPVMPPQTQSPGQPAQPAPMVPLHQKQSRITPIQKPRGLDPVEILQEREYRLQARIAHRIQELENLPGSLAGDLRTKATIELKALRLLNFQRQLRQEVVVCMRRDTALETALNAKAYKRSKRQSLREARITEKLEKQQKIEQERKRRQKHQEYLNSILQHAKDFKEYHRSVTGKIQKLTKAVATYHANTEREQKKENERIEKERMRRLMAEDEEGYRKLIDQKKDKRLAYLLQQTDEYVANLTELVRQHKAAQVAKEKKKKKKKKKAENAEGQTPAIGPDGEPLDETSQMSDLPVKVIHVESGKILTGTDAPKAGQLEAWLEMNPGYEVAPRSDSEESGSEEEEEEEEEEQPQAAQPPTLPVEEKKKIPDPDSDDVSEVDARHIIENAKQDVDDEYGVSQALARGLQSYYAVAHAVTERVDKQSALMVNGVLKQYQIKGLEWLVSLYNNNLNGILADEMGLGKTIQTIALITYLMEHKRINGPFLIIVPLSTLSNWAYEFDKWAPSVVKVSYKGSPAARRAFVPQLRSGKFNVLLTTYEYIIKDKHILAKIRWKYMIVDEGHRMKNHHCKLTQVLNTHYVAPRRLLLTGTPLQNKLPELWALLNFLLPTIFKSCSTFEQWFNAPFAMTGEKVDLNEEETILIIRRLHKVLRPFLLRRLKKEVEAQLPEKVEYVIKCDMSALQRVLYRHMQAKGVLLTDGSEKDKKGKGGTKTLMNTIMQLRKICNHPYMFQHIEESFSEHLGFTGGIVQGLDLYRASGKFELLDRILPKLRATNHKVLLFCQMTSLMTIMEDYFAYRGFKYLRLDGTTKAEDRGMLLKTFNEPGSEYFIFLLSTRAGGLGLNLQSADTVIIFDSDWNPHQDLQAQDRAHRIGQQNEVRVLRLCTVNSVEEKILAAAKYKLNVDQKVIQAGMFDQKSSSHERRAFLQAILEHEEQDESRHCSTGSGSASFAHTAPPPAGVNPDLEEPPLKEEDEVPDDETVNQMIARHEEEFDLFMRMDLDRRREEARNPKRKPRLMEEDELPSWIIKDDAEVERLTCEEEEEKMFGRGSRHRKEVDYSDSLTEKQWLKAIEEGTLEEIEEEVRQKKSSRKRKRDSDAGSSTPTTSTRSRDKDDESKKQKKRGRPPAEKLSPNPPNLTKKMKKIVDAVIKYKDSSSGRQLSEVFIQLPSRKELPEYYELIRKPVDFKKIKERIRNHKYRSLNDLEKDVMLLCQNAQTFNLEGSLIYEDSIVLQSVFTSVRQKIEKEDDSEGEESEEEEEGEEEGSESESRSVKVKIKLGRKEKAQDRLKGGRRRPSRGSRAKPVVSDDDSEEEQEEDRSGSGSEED
substance,measurement,setting,value
BRD3 ET (from UniProt Q15059),Kd,[1],7 µM
same,Kd,[2],950 µM
same,Kd,[3],95 µM
BRD4 ET (from UniProt O60885),Kd,[4],635 µM
same,Kd,[5],160 µM
BRG1 1591-1602 (from UniProt P51532),Kd,[6],7 µM
CHD4 290-301 (from UniProt Q14839),Kd,[7],95 µM
JMJD6 84-96 (from UniProt Q6NYC1),Kd,[8],160 µM
KVAPLKIKLGGF [CHD4],Kd,[9]; BRD3-ET,~95 µM and < 100 µM
KWTLERLKRKYRN [JMJD6],relative binding strength,[10]; BRD4-ET binding of JMJD6 compared with NSD3 and LANA binding BRD3-ET,reported to bind BRD4-ET more strongly than NSD3 and LANA bind BRD3-ET
same,Kd,"[10]; BRD4-ET:JMJD6, 20 °C",~160 µM
same,relative binding to BRD3-ET vs BRD4-ET,[9]; BRD3-ET compared with BRD4-ET,weak or no binding
LANA 1098-1116 (from UniProt Q9QR71),Kd,[11],635 µM
NLQSSIVKFKKPLPLTQPG [LANA],Kd,[10]; BRD4-ET:LANA,~635 µM
SRLTWRVQRSQNPLKIRLTREAP [TP],Kd,"[12]; pH 7.5, 10 °C",0.013 ± 0.01 µM
same,Kd,"[12]; pH 7.5, 25 °C",0.09 ± 0.01 µM
